Data taken from the supplement of paper PMC10065799, “High-throughput profiling of sequence recognition by tyrosine kinases and SH2 domains using bacterial peptide display” (eLife, 2023).
Blank lines part the entries; values can stand above or below the sequence they belong to.

Columns and labels:
MERTK = MERTK (UniProt Q12866); experiment: phosphorylation enrichment, bacterial display (enrichment ratio); higher = better substrate or ligand; peptides without Tyr show the background
Fer (mouse) = experiment: as above
AncSZ = experiment: as above
FGFR1 = FGFR1 (UniProt P11362); experiment: as above
FGFR3 = FGFR3 (UniProt P22607); experiment: as above
EPHB1 = EPHB1 (UniProt P54762); experiment: as above
c-Src = experiment: as above
Fes = Fes (UniProt P07332); experiment: as above
Fyn = Fyn (UniProt P06241); experiment: as above
Hck = Hck (UniProt P08631); experiment: as above
c-Abl (mouse) = experiment: as above
EPHB2 = EPHB2 (UniProt P29323); experiment: as above
Jak2 = Jak2 (UniProt O60674); experiment: as above
SHP2-C SH2 = experiment: SH2 binding enrichment of the phosphorylated peptide, bacterial display (enrichment ratio); higher = better substrate or ligand; peptides without Tyr show the background
Grb2 SH2 = Grb2 SH2 (UniProt P62993); experiment: as above
c-Src SH2 = experiment: as above
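Throughout, for SH2 binding enrichment of the phosphorylated peptide, bacterial display: peptide library displayed on the E. coli surface as eCPX fusions, selected cells deep-sequenced, score is each peptide's frequency after selection divided by its frequency in the input.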
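Throughout, for phosphorylation enrichment, bacterial display: 11-residue human phosphosite peptides and single-mutation variants displayed on the E. coli surface, counted by deep sequencing, each peptide's frequency after selection divided by its frequency in the unselected input library; frequency after pTyr selection over input frequency; kinase dosed for 20-30% of maximal phosphorylation in three min.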

Sequence of FGFR1 (P11362 whole entry, looked up): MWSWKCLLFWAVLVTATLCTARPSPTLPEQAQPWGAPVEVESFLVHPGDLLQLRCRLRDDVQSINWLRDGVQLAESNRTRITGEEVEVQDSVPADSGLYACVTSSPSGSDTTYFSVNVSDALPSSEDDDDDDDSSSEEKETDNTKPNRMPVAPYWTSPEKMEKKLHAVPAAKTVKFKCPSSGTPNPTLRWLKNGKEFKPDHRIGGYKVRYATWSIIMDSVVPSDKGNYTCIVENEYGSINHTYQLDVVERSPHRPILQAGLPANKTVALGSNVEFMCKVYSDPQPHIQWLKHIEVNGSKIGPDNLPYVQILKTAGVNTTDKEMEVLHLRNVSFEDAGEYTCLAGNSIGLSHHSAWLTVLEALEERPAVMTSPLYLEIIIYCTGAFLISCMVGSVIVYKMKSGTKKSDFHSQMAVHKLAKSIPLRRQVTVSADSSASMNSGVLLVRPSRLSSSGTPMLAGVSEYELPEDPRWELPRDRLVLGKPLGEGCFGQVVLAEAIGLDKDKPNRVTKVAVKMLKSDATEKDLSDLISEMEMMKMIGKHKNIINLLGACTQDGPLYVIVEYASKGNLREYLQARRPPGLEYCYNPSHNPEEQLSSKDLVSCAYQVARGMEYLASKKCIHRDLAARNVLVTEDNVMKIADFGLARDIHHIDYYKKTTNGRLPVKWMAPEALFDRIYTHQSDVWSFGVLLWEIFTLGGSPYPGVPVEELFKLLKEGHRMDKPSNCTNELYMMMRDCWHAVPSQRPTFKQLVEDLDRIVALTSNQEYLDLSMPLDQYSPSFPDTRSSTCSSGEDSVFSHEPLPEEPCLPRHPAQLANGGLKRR
Sequence of EPHB1 (P54762 whole entry, looked up): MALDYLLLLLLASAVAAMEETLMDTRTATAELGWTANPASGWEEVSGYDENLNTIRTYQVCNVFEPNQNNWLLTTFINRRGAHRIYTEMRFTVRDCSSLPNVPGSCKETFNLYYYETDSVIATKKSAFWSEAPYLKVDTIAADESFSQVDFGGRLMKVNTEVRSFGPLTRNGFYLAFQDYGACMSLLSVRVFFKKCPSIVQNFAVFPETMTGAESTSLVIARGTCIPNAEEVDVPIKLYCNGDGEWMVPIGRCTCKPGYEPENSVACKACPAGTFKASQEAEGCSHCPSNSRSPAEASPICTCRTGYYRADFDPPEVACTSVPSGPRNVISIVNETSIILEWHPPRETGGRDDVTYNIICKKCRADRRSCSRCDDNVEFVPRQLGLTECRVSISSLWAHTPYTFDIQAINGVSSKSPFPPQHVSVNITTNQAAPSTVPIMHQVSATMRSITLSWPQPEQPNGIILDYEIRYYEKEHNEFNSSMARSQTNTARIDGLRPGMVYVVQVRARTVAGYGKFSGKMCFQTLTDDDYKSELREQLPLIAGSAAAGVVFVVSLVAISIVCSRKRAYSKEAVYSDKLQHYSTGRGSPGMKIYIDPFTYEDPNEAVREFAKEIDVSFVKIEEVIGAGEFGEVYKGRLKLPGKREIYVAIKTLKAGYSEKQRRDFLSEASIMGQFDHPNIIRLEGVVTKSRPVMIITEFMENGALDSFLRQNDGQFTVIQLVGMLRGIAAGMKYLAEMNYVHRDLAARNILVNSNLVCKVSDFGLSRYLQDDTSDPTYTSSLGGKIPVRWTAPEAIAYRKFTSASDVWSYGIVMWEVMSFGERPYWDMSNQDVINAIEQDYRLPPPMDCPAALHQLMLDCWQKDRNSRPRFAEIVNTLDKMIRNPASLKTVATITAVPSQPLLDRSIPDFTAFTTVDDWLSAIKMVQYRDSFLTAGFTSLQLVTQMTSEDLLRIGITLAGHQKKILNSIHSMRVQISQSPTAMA
Sequence of Fes (P07332 whole entry, looked up): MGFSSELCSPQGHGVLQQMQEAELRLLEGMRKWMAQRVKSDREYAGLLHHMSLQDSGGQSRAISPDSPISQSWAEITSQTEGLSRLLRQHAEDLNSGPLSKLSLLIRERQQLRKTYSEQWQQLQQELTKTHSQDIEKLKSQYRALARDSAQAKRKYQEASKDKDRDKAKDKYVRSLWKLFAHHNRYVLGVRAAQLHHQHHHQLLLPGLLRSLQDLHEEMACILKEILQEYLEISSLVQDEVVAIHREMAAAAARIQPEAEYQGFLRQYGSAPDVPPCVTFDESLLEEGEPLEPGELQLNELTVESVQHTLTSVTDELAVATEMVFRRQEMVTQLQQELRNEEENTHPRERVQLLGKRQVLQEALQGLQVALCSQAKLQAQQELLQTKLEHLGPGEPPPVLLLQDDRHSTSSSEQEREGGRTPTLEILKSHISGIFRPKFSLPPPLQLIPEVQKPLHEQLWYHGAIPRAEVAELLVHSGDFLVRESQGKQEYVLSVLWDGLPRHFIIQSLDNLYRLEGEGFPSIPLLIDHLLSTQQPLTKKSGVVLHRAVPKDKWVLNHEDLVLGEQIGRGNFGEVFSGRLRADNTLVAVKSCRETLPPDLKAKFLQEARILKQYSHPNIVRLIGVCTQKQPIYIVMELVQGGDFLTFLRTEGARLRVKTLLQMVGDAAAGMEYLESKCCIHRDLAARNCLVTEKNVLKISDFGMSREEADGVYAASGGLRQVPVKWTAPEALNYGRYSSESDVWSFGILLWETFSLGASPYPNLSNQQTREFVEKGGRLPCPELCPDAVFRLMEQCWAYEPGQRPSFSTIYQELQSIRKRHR
Sequence of MERTK (Q12866 whole entry, looked up): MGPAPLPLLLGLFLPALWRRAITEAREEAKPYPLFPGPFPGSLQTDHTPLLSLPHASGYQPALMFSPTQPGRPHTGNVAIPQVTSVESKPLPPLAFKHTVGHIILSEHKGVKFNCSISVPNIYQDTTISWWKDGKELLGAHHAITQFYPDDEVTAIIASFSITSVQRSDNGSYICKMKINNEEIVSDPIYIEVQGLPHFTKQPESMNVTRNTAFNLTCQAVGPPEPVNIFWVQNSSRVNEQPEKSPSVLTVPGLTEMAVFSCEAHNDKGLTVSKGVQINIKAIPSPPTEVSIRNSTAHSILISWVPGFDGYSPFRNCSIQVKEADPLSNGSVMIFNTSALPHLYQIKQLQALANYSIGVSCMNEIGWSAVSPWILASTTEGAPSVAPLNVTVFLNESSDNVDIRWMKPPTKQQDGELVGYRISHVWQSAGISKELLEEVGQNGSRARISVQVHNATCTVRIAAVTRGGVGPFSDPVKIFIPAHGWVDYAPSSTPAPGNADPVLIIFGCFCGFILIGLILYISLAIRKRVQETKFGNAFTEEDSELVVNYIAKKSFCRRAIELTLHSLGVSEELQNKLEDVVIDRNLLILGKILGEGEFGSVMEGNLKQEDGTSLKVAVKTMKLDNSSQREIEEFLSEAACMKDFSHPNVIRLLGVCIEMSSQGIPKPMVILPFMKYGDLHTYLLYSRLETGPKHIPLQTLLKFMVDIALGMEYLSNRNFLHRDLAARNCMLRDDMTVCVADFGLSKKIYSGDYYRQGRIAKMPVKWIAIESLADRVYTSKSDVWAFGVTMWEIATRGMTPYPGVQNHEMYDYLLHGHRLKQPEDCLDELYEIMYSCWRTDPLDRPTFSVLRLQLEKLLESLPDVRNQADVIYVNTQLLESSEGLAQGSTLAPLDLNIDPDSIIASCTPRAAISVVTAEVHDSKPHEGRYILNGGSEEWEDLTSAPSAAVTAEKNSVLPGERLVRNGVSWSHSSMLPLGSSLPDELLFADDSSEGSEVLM
Sequence of Fyn (P06241 whole entry, looked up): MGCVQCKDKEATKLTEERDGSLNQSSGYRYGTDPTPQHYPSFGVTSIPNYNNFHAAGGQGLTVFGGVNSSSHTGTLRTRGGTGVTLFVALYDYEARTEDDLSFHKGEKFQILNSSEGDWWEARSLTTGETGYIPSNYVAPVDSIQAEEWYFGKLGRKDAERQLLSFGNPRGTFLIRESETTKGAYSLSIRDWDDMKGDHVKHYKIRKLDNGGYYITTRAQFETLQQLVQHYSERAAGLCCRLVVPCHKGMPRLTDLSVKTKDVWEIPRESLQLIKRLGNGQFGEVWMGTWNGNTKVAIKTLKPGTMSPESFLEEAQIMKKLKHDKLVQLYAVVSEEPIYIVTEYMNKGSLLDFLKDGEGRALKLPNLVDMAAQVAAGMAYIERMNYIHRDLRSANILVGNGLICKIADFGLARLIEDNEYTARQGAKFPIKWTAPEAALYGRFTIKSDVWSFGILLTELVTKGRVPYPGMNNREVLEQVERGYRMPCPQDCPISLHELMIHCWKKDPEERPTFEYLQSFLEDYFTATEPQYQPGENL
Sequence of FGFR3 (P22607 whole entry, looked up): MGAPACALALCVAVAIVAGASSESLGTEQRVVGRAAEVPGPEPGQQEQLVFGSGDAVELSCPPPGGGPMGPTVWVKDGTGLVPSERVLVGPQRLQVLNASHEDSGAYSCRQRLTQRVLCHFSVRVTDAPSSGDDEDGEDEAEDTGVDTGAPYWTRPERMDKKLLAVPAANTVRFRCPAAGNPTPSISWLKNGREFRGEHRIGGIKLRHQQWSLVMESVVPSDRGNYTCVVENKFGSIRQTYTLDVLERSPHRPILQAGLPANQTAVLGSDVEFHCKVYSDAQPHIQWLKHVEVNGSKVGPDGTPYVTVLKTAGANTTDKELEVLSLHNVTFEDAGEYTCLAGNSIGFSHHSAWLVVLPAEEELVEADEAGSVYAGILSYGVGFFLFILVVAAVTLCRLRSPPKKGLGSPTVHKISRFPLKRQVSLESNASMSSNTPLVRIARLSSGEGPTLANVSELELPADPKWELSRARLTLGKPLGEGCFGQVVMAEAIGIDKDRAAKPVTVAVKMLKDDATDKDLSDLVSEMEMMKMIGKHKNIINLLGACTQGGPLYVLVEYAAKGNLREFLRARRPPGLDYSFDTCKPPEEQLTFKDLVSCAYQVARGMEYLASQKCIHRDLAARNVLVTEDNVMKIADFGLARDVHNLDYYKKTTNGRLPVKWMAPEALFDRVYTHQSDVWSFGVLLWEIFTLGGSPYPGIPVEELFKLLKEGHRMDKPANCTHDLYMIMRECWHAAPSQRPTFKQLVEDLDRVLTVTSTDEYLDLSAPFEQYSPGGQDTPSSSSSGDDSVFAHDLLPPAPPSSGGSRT

Sequence: EEQKRYYNAMK [SCN5A_Y1494_K1493R]
phosphorylation enrichment (MERTK): 0.351
phosphorylation enrichment (Fer (mouse)): 0.436
phosphorylation enrichment (AncSZ): 0.623
phosphorylation enrichment (FGFR1): 0.511
phosphorylation enrichment (FGFR3): 0.48
phosphorylation enrichment (EPHB1): 0.512
phosphorylation enrichment (c-Src): 0.327
phosphorylation enrichment (Fes): 0.648
phosphorylation enrichment (Fyn): 0.471
phosphorylation enrichment (Hck): 0.46
phosphorylation enrichment (c-Abl (mouse)): 0.352
phosphorylation enrichment (EPHB2): 0.49
phosphorylation enrichment (Jak2): 0.479
SH2 binding enrichment (SHP2-C SH2): 0.522
SH2 binding enrichment (Grb2 SH2): 1.32
SH2 binding enrichment (c-Src SH2): 0.813

Sequence: SLTRLCVGENA [NLRP3_Y861_Y861C]
phosphorylation enrichment (MERTK): 0.466
phosphorylation enrichment (Fer (mouse)): 0.434
phosphorylation enrichment (AncSZ): 0.809
phosphorylation enrichment (FGFR1): 0.471
phosphorylation enrichment (FGFR3): 0.685
phosphorylation enrichment (EPHB1): 0.495
phosphorylation enrichment (c-Src): 0.445
phosphorylation enrichment (Fes): 1
phosphorylation enrichment (Fyn): 0.503
phosphorylation enrichment (Hck): 0.534
phosphorylation enrichment (c-Abl (mouse)): 2.77
phosphorylation enrichment (EPHB2): 0.541
phosphorylation enrichment (Jak2): 0.759
SH2 binding enrichment (SHP2-C SH2): 0.589
SH2 binding enrichment (Grb2 SH2): 0.867
SH2 binding enrichment (c-Src SH2): 0.538

Sequence: HSDFQYSQRSQ [PKP2_Y168_YF]
phosphorylation enrichment (MERTK): 0.602
phosphorylation enrichment (Fer (mouse)): 0.733
phosphorylation enrichment (AncSZ): 0.997
phosphorylation enrichment (FGFR1): 0.931
phosphorylation enrichment (FGFR3): 0.608
phosphorylation enrichment (EPHB1): 0.752
phosphorylation enrichment (c-Src): 0.747
phosphorylation enrichment (Fes): 1.02
phosphorylation enrichment (Fyn): 0.844
phosphorylation enrichment (Hck): 0.718
phosphorylation enrichment (c-Abl (mouse)): 0.942
phosphorylation enrichment (EPHB2): 0.782
phosphorylation enrichment (Jak2): 0.952
SH2 binding enrichment (SHP2-C SH2): 0.832
SH2 binding enrichment (Grb2 SH2): 0.99
SH2 binding enrichment (c-Src SH2): 0.581

Sequence: PVFIKYLPEWT [PSEN1_Y240_L235P]
phosphorylation enrichment (MERTK): 0.475
phosphorylation enrichment (Fer (mouse)): 0.759
phosphorylation enrichment (AncSZ): 1.45
phosphorylation enrichment (FGFR1): 0.515
phosphorylation enrichment (FGFR3): 1.04
phosphorylation enrichment (EPHB1): 0.64
phosphorylation enrichment (c-Src): 0.626
phosphorylation enrichment (Fes): 1.68
phosphorylation enrichment (Fyn): 0.447
phosphorylation enrichment (Hck): 0.519
phosphorylation enrichment (c-Abl (mouse)): 1.07
phosphorylation enrichment (EPHB2): 0.715
phosphorylation enrichment (Jak2): 1.62
SH2 binding enrichment (SHP2-C SH2): 0.884
SH2 binding enrichment (Grb2 SH2): 1.28
SH2 binding enrichment (c-Src SH2): 0.606

Sequence: RGESFYQDRMN [RARS_Y338]
phosphorylation enrichment (MERTK): 0.469
phosphorylation enrichment (Fer (mouse)): 0.603
phosphorylation enrichment (AncSZ): 0.746
phosphorylation enrichment (FGFR1): 0.534
phosphorylation enrichment (FGFR3): 0.512
phosphorylation enrichment (EPHB1): 0.463
phosphorylation enrichment (c-Src): 0.541
phosphorylation enrichment (Fes): 0.996
phosphorylation enrichment (Fyn): 0.411
phosphorylation enrichment (Hck): 0.631
phosphorylation enrichment (c-Abl (mouse)): 0.726
phosphorylation enrichment (EPHB2): 0.392
phosphorylation enrichment (Jak2): 0.899
SH2 binding enrichment (SHP2-C SH2): 0.725
SH2 binding enrichment (Grb2 SH2): 0.794
SH2 binding enrichment (c-Src SH2): 0.461

Sequence: AQADIYKADFQ [IKBKG_Y308]
phosphorylation enrichment (MERTK): 0.399
phosphorylation enrichment (Fer (mouse)): 0.354
phosphorylation enrichment (AncSZ): 0.856
phosphorylation enrichment (FGFR1): 0.44
phosphorylation enrichment (FGFR3): 0.722
phosphorylation enrichment (EPHB1): 0.465
phosphorylation enrichment (c-Src): 0.925
phosphorylation enrichment (Fes): 0.848
phosphorylation enrichment (Fyn): 0.734
phosphorylation enrichment (Hck): 0.78
phosphorylation enrichment (c-Abl (mouse)): 0.675
phosphorylation enrichment (EPHB2): 0.535
phosphorylation enrichment (Jak2): 0.672
SH2 binding enrichment (SHP2-C SH2): 0.647
SH2 binding enrichment (Grb2 SH2): 0.836
SH2 binding enrichment (c-Src SH2): 0.421

The next lines start with results.

SH2 binding enrichment (SHP2-C SH2): 1.24
SH2 binding enrichment (Grb2 SH2): 0.985
SH2 binding enrichment (c-Src SH2): 0.649
Sequence: TSYSGYRYHRH [NKAPL_Y94]
phosphorylation enrichment (MERTK): 0.382
phosphorylation enrichment (Fer (mouse)): 0.418
phosphorylation enrichment (AncSZ): 0.52
phosphorylation enrichment (FGFR1): 0.407
phosphorylation enrichment (FGFR3): 0.433
phosphorylation enrichment (EPHB1): 0.536
phosphorylation enrichment (c-Src): 0.555
phosphorylation enrichment (Fes): 0.501
phosphorylation enrichment (Fyn): 0.891
phosphorylation enrichment (Hck): 0.628
phosphorylation enrichment (c-Abl (mouse)): 0.46
phosphorylation enrichment (EPHB2): 0.42
phosphorylation enrichment (Jak2): 0.439

SH2 binding enrichment (SHP2-C SH2): 1.66
SH2 binding enrichment (Grb2 SH2): 1.34
SH2 binding enrichment (c-Src SH2): 2.69
Sequence: IIRYNYLLDVL [FGFR4_Y237_S232I]
phosphorylation enrichment (MERTK): 0.52
phosphorylation enrichment (Fer (mouse)): 0.507
phosphorylation enrichment (AncSZ): 0.943
phosphorylation enrichment (FGFR1): 0.599
phosphorylation enrichment (FGFR3): 0.723
phosphorylation enrichment (EPHB1): 0.522
phosphorylation enrichment (c-Src): 0.49
phosphorylation enrichment (Fes): 2.41
phosphorylation enrichment (Fyn): 0.476
phosphorylation enrichment (Hck): 0.557
phosphorylation enrichment (c-Abl (mouse)): 0.976
phosphorylation enrichment (EPHB2): 0.651
phosphorylation enrichment (Jak2): 1.03
